We go through 1 molecule from publication doi:10.1101/2022.12.21.521423 (bioRxiv, 2022).

The target in one experiment is HA-LRRC37B-ECTO (human, UniProt Q96QE4 28-905). Nature of the experiment: cell-surface binding assay.
The next experiment addresses HA-LRRC37B-LRR-ECTO (human, UniProt Q96QE4 468-841). Kind of experiment: cell-surface binding assay.

Chain of HA-LRRC37B-ECTO (Q96QE4 28-905): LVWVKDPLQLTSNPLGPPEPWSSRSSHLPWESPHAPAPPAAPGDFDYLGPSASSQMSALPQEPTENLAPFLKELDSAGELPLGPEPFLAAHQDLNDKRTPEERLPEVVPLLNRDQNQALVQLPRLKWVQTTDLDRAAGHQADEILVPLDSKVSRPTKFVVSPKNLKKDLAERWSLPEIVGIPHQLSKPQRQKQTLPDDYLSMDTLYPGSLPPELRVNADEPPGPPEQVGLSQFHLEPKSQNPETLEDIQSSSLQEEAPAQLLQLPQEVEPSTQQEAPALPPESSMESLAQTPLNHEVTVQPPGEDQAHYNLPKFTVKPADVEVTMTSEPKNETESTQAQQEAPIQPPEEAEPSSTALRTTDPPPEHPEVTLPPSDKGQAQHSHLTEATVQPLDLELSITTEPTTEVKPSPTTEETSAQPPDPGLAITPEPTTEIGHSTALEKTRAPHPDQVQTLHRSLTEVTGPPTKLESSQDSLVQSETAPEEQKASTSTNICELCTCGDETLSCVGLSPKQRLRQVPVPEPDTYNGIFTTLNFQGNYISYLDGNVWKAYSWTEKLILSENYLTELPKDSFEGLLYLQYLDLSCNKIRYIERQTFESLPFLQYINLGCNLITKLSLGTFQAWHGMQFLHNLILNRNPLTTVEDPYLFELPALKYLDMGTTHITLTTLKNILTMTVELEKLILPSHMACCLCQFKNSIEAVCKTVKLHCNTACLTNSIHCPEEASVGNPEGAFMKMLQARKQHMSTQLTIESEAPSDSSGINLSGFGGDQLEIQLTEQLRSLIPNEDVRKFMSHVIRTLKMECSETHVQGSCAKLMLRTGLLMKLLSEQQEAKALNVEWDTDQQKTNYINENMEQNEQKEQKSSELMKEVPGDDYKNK
Chain of HA-LRRC37B-LRR-ECTO (Q96QE4 468-841): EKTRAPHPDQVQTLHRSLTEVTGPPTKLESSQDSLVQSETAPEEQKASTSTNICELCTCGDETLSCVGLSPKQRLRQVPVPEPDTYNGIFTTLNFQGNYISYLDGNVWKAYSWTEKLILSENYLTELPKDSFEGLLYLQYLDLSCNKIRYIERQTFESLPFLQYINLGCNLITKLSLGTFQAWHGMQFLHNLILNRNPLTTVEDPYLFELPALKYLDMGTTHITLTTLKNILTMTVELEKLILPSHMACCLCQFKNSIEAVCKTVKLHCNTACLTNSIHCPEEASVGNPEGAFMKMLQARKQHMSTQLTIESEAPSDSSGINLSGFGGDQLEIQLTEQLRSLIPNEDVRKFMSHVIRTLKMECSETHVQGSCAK

B1: FGF13A ExonS-biotin (peptide)
peptide: MAAAIASSLIRQKRQAREREKSNACKCVSSPSKGKTSCDKNKLNVFSRVKLFGSKKRRRRRPE
modifications: also: biotin (position not given here)
As to B1, the values for the Kd with HA-LRRC37B-ECTO and with HA-LRRC37B-LRR-ECTO were 2.29 ± 1.04 nM and 1.18 ± 0.718 nM, respectively.
